Test results: article PMC3008546 (Structure (London, England : 1993), 2010)

Legend:
SEC-MALS = biological target: the molecule itself; experiment: SEC-MALS
SAXS = biological target: the molecule itself; experiment: SAXS

| Protein | stoichiometry N (SEC-MALS) | stoichiometry N (SAXS) |
| --- | --- | --- |
| full-length XRCC4 (natural protein, human, UniProt Q13426 1-336, looked up) MERKISRIHLVSEPSITHFLQVSWEKTLESGFVITLTDGHSAWTGTVSESEISQEADDMAMEKGKYVGELRKALLSGAGPADVYTFNFSKESCYFFFEKNLKDVSFRLGSFNLEKVENPAEVIRELICYCLDTIAENQAKNEHLQKENERLLRDWNDVQGRFEKCVSAKEALETDLYKRFILVLNEKKTKIRSLHNKLLNAAQEREKDIKQEGETAICSEMTADRDPVYDESTDEESENQTDLSGLASAAVSKDDSIISSLDVTDIAPSRKRRQRMQRNLGTEPKMAPQENQLQEKENSRPDSSLPETSKKEHISAENMSLETLRNSSPEDLFDEI | 4 |  |
| XRCC4 1-161 (domain or fragment, human, UniProt Q13426 1-161, looked up) MERKISRIHLVSEPSITHFLQVSWEKTLESGFVITLTDGHSAWTGTVSESEISQEADDMAMEKGKYVGELRKALLSGAGPADVYTFNFSKESCYFFFEKNLKDVSFRLGSFNLEKVENPAEVIRELICYCLDTIAENQAKNEHLQKENERLLRDWNDVQGR |  | 2 |
| XRCC4 1-140 (domain or fragment, human, UniProt Q13426 1-140, looked up) MERKISRIHLVSEPSITHFLQVSWEKTLESGFVITLTDGHSAWTGTVSESEISQEADDMAMEKGKYVGELRKALLSGAGPADVYTFNFSKESCYFFFEKNLKDVSFRLGSFNLEKVENPAEVIRELICYCLDTIAENQAK |  | 2 |
